Measured values from patent publication US20090269786A1.

What was measured:
[1] = biological target: human ρ1 GABAC receptor (human) (UniProt P24046); test: flow cytometry on SHp5-ρ1 cells, antibody at 1/1,000 dilution
[2] = biological target: human ρ1 GABAC receptor (human) (UniProt P24046); test: flow cytometry on SHp5-ρ1 cells, antibody at 1/25 or 1/50 dilution

UniProt P24046, sequence (P24046 22-479): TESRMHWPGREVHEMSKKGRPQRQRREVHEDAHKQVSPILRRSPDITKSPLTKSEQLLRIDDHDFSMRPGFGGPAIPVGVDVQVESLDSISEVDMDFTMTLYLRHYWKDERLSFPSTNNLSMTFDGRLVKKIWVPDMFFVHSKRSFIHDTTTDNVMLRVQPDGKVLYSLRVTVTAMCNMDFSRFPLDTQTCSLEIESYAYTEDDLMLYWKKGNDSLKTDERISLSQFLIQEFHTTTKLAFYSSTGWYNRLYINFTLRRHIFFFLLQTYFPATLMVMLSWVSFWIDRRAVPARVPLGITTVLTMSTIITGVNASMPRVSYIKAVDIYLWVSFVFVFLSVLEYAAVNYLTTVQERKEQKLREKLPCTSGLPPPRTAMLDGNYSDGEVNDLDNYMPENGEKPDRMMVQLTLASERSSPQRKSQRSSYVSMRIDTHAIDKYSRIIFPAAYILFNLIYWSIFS

percent positive cells [1]: 47%
percent positive cells [2]: 63%
Substance: affinity-purified GABAC Ab N-14 (antibody)
